Measured values reported in patent US20190077844A1 (published 2019).
Changes are numbered by the printed parent chain.

B1: ADX_6077_F02 DG→DA mutant, alkylated (designed binder)
chain: GVSDVPRDLEVVAATPTSLLISWSDDYHAHRYYRITYGETGGNSPVQEFTVPGEHVTATISGLKPGVDYTITVYAVTYDAEKAATDWSISINYRTPC
modifications: C-terminal cysteine alkylated
notes: also called P1-055660
B2: ADX_6077_F02 DG→DL mutant, alkylated (designed binder)
chain: B1 chain with A80L
modifications: C-terminal cysteine alkylated
notes: also called P1-055671
B3: ADX_6077_F02 DG→DS mutant, alkylated (designed binder)
chain: B1 chain with A80S
modifications: C-terminal cysteine alkylated
notes: also called P1-055667
B4: ADX_6077_F02 DG→DV mutant, alkylated (designed binder)
chain: B1 chain with A80V
modifications: C-terminal cysteine alkylated
notes: also called P1-055672
B5: ADX_6077_F02 DG→AG mutant, alkylated (designed binder)
chain: B1 chain with D79A, A80G
modifications: C-terminal cysteine alkylated
notes: also called P1-055669
B6: ADX_6077_F02 DG→EG mutant, alkylated (designed binder)
chain: B1 chain with D79E, A80G
modifications: C-terminal cysteine alkylated
notes: also called P1-055673
B7: ADX_6077_F02 DG→GG mutant, alkylated (designed binder)
chain: B1 chain with D79G, A80G
modifications: C-terminal cysteine alkylated
notes: also called P1-055670
B8: ADX_6077_F02 DG→SG mutant, alkylated (designed binder)
chain: VSDVPRDLEVVAATPTSLLISWSDDYHAHRYYRITYGETGGNSPVQEFTVPGEHVTATISGLKPGVDYTITVYAVTYSGEKAATDWSISINYRTPC
modifications: C-terminal cysteine alkylated
notes: also called P1-055668

Target: T1, Recombinant murine glypican-3 (aa 25-557) (R&D Systems) (murine, UniProt Q8CFZ4 25-557)
T1 construct: also called muGPC3; murine GPC3
Assay: SPR 1-point off-rate, ratio to parental ADX_6077_F02
Method: (§1) Surface plasmon resonance (SPR) was performed to calculate off-rates (kd) and binding affinities of α-GPC3 adnectins and tubulysin-conjugated AdxDCs using a Biacore T100 instrument (GE Healthcare). […] SPR experiments were conducted at 37° C. using HBS-P+(10 mM HEPES, 150 mM NaCl, 0.05% (v/v) Surfactant P20, pH 7.4) running buffer (GE Healthcare). […] For off-rate measurements, single 200 nM adnectin/AdxDC concentrations were injected using identical conditions. One 30s injection of 10 mM glycine pH 1.7 was used to remove bound adnectin and regenerate the GPC₃ surfaces between assay cycles.
(§2) Rate constants kₐ (kₒₙ) and kd (koff) were derived from reference-subtracted sensorgrams fit to a 1:1 binding model in Biacore T100 Evaluation Software v2.0.4 (GE Healthcare). The affinity constant, KD was calculated from the ratio of rate constants kd/kₐ.
(§3) One-hundred to one-hundred-fifty milligrams of each of the eight mutants was made, purified and alkylated as previously above. Three to five milligrams of each of eight alkylated variants at 1-3 mg/mL were subjected to SEC, DSC, GPC3 binding (SPR 1 pt off-rates), MS and HIC.

T1 sequence (Q8CFZ4 25-557 limits assumed, form in doubt): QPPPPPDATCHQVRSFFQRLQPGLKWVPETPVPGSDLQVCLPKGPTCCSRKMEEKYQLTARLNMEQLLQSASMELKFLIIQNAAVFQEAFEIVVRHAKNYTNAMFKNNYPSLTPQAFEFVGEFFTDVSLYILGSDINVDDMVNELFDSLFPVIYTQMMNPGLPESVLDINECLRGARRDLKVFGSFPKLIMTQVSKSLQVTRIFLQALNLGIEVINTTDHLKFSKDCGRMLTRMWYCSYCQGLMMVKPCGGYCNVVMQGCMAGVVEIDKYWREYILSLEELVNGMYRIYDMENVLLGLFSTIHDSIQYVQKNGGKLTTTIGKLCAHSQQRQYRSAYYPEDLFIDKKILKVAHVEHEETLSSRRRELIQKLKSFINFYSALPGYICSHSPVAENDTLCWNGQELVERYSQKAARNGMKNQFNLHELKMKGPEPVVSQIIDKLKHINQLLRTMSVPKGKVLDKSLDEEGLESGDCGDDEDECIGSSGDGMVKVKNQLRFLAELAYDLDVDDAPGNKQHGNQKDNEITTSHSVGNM

| muGPC3 koff (mut/par) [ratio mutant/parent] | Binder |
| --- | --- |
| 3.7 | B1 |
| 3.1 | B2 |
| 3.3 | B3 |
| 7 | B4 |
| 5.5 | B5 |
| 5.1 | B6 |
| 12 | B7 |
| 4.8 | B8 |

Target: T2, Recombinant human glypican-3 (aa 1-559), His-tagged (R&D Systems) (human, UniProt P51654 25-559)
T2 construct: also called huGPC3; human GPC3
Assay: as above
Method: as §1, §2, §3

T2 sequence (P51654 other isoform, or with tags, fused parts or gaps): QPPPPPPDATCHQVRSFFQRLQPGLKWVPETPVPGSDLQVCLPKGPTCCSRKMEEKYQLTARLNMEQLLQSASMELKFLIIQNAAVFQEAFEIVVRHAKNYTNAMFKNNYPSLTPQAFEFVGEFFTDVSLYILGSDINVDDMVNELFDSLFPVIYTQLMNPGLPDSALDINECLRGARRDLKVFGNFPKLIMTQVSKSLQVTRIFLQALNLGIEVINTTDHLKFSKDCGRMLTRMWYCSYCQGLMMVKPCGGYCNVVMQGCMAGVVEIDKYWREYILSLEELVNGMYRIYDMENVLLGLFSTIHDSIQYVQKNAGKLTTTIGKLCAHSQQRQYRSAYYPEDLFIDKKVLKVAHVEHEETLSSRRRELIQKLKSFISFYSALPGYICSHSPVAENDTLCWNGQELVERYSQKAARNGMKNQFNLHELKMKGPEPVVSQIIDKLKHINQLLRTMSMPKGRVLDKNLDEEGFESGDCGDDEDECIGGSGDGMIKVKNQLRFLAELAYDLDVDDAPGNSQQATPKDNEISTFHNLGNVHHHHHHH

| huGPC3 koff (mut/par) [ratio mutant/parent] | Binder |
| --- | --- |
| 3.9 | B1 |
| 3.6 | B2 |
| 3.5 | B3 |
| 7.9 | B4 |
| 5.9 | B5 |
| 5.4 | B6 |
| 14 | B7 |
| 5.2 | B8 |

Target: T3, Human glypican-3 on cells (Huh7, Hep3B, H446, HepG2; Hep3B xenograft tissue) (human, UniProt P51654 25-554)
T3 construct: Endogenous GPC3 of human tumor cell lines; also called huGPC3 on cells; GPC3 receptor
Assay: flow cytometry on Huh7 cells, EC50 ratio to parent Adnectin
Method: The binding of DG variants to huGPC3 in DG GPC3 AdxDCs mutants were evaluated by flow cytometry for binding to Huh7 carcinoma cells grown in DMEM media with 10% FBS. Cells were harvested using Versene, an EDTA cell dissociation solution from Lonza, Cat. #17-711E. Tumor cells (1E5 cells/reaction) were suspended in FACS buffer (PBS, 1% BSA, 0.05% Na Azide) and mixed with a serial dilution of AdxDC for one hour on ice. Cells were washed three times with FACS buffer, and bound AdxDC was detected with an in house anti-scaffold monoclonal Ab and PE-conjugated Antibody from (RnD Systems), cat#NL007, and read on a flow cytometer.

T3 sequence (P51654 25-554 limits assumed): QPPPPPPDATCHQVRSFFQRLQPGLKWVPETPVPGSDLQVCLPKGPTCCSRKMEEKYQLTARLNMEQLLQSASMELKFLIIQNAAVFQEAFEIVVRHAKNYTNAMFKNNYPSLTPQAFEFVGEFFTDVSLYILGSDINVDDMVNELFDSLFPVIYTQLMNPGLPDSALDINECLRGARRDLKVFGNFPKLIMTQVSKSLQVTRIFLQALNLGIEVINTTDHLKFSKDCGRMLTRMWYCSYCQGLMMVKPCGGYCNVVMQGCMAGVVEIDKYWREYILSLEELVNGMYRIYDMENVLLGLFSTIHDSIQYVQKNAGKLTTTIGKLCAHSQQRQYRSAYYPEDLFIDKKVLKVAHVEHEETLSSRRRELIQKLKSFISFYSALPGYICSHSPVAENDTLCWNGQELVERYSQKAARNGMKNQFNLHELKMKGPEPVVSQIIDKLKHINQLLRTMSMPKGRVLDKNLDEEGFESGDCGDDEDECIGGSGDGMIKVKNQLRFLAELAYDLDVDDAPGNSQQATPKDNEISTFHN

| huGPC3 on cells EC50 (mutant/parent) [ratio mutant/parent] | Binder |
| --- | --- |
| 1.3 | B1 |
| 1.7 | B2 |
| 1.4 | B3 |
| 1.1 | B5 |
| 1.6 | B6 |
| 1.1 | B8 |
